T1: TJP3_3, O95049
T1 sequence (O95049 375-456, limits assumed, looked up): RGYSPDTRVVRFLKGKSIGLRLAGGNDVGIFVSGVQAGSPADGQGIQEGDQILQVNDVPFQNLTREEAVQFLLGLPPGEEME

T2: APBA1_2, Q02410
T2 sequence (Q02410 742-832, limits assumed, looked up): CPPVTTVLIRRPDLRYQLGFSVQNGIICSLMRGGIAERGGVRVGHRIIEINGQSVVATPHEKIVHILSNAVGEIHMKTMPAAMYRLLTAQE

T3: CARD11, Q9BXL7
T3 sequence (Q9BXL7 662-765, limits assumed, looked up): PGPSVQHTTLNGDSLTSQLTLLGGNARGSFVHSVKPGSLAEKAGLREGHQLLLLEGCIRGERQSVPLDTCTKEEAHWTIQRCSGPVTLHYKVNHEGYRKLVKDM

T4: DFNB31_3, Q9P202
T4 sequence (Q9P202 811-907, limits assumed, looked up): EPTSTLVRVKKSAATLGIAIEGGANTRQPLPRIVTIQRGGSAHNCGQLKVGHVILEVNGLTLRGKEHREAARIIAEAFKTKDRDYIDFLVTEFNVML

T5: GRIP1_5, Q9Y3R0
T5 sequence (Q9Y3R0 568-668, limits assumed, looked up): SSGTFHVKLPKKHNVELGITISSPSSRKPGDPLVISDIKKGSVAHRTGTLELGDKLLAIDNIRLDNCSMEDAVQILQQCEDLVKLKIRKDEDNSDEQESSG

T6: MPP7, Q5T2T1
T6 sequence (Q5T2T1 134-230, limits assumed, looked up): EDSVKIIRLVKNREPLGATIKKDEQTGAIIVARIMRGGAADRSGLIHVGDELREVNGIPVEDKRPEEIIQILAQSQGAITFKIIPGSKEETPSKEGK

T7: LIN7C, Q9NUP9
T7 sequence (Q9NUP9 88-185, limits assumed, looked up): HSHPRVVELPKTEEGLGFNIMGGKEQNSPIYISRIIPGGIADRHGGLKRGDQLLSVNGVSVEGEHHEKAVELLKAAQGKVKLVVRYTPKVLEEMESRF

T8: GRIP1_2, Q9Y3R0
T8 sequence (Q9Y3R0 145-248, limits assumed, looked up): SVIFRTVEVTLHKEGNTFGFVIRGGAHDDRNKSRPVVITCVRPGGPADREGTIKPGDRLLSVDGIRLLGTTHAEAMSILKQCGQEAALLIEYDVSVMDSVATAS

T9: SYNJ2BP, P57105
T9 sequence (P57105 8-110, limits assumed, looked up): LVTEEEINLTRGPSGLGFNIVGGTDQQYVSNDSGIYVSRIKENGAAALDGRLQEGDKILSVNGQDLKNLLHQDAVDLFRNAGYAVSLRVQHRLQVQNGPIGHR

T10: GRIP1_3, Q9Y3R0
T10 sequence (Q9Y3R0 247-346, limits assumed, looked up): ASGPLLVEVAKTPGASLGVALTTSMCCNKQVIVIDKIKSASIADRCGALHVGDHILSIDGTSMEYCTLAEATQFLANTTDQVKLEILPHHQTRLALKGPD


Biological target: DLG4_3, P78352
Sequence (P78352 306-403): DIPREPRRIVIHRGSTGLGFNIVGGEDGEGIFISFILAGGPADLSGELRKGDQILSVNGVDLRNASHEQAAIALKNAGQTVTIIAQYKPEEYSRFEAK
Assay: holdup assay
Parameters: key: below the threshold = too weak to quantify, mostly under pKd 3.1 to 4
Conditions: plain residues with an end cap or a label only (N-terminal biotin on a linker: ado-ado)

Binder	pKd
PRAEAEDSFL [PDGFRB, P09619]	below the threshold
EALLQMESVA [CAVIN3, Q969G5]	below the threshold

Biological target: T1, TJP3_3, O95049
Assay: holdup assay
Parameters: key: below the threshold = too weak to quantify, mostly under pKd 3.1 to 4
Conditions: plain residues with an end cap or a label only (N-terminal biotin on a linker: ado-ado)

Binder	pKd
PRAEAEDSFL [PDGFRB, P09619]	3.49
EALLQMESVA [CAVIN3, Q969G5]	below the threshold

Biological target: T2, APBA1_2, Q02410
Assay: holdup assay
Parameters: key: below the threshold = too weak to quantify, mostly under pKd 3.1 to 4
Conditions: plain residues with an end cap or a label only (N-terminal biotin on a linker: ado-ado)

Binder	pKd
PRAEAEDSFL [PDGFRB, P09619]	3.65
EALLQMESVA [CAVIN3, Q969G5]	3.5

Biological target: FRMPD3, Q5JV73
Sequence (Q5JV73 12-100): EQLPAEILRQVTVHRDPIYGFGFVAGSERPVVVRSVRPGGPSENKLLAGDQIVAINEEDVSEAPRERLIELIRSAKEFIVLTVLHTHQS
Assay: holdup assay
Parameters: key: below the threshold = too weak to quantify, mostly under pKd 3.1 to 4
Conditions: plain residues with an end cap or a label only (N-terminal biotin on a linker: ado-ado)

Binder	pKd
PRAEAEDSFL [PDGFRB, P09619]	3.56
EALLQMESVA [CAVIN3, Q969G5]	below the threshold

Biological target: GRIP2_7, Q9C0E4
Sequence (Q9C0E4 934-1023): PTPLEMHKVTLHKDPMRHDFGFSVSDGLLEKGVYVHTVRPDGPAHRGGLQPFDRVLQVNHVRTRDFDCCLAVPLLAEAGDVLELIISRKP
Assay: holdup assay
Parameters: key: below the threshold = too weak to quantify, mostly under pKd 3.1 to 4
Conditions: plain residues with an end cap or a label only (N-terminal biotin on a linker: ado-ado)

Binder	pKd
PRAEAEDSFL [PDGFRB, P09619]	below the threshold
EALLQMESVA [CAVIN3, Q969G5]	below the threshold

Biological target: GORASP2, Q9H8Y8
Assay: holdup assay
Parameters: key: below the threshold = too weak to quantify, mostly under pKd 3.1 to 4
Conditions: plain residues with an end cap or a label only (N-terminal biotin on a linker: ado-ado)

Binder	pKd
PRAEAEDSFL [PDGFRB, P09619]	below the threshold
EALLQMESVA [CAVIN3, Q969G5]	below the threshold

Biological target: SNX27, Q96L92
Assay: holdup assay
Parameters: key: below the threshold = too weak to quantify, mostly under pKd 3.1 to 4
Conditions: plain residues with an end cap or a label only (N-terminal biotin on a linker: ado-ado)

Binder	pKd
PRAEAEDSFL [PDGFRB, P09619]	4.71
EALLQMESVA [CAVIN3, Q969G5]	4.13

Biological target: T3, CARD11, Q9BXL7
Assay: holdup assay
Parameters: key: below the threshold = too weak to quantify, mostly under pKd 3.1 to 4
Conditions: plain residues with an end cap or a label only (N-terminal biotin on a linker: ado-ado)

Binder	pKd
PRAEAEDSFL [PDGFRB, P09619]	below the threshold
EALLQMESVA [CAVIN3, Q969G5]	below the threshold

Biological target: T4, DFNB31_3, Q9P202
Assay: holdup assay
Parameters: key: below the threshold = too weak to quantify, mostly under pKd 3.1 to 4
Conditions: plain residues with an end cap or a label only (N-terminal biotin on a linker: ado-ado)

Binder	pKd
PRAEAEDSFL [PDGFRB, P09619]	below the threshold
EALLQMESVA [CAVIN3, Q969G5]	below the threshold

Biological target: DLG1_3, Q12959
Sequence (Q12959 457-571): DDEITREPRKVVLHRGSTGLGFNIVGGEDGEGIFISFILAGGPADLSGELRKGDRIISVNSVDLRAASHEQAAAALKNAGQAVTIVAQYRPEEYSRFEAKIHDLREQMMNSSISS
Assay: holdup assay
Parameters: key: below the threshold = too weak to quantify, mostly under pKd 3.1 to 4
Conditions: plain residues with an end cap or a label only (N-terminal biotin on a linker: ado-ado)

Binder	pKd
PRAEAEDSFL [PDGFRB, P09619]	3.54
EALLQMESVA [CAVIN3, Q969G5]	below the threshold

Biological target: MAGI2_4, Q86UL8
Sequence (Q86UL8 772-865): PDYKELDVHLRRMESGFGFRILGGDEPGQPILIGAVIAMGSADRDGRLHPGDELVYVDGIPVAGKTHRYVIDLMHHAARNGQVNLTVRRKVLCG
Assay: holdup assay
Parameters: key: below the threshold = too weak to quantify, mostly under pKd 3.1 to 4
Conditions: plain residues with an end cap or a label only (N-terminal biotin on a linker: ado-ado)

Binder	pKd
PRAEAEDSFL [PDGFRB, P09619]	3.6
EALLQMESVA [CAVIN3, Q969G5]	below the threshold

Biological target: SCRIB_1, Q14160
Sequence (Q14160 718-814): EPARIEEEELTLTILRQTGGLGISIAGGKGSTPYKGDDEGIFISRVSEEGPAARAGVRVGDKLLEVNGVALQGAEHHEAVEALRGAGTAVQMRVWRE
Assay: holdup assay
Parameters: key: below the threshold = too weak to quantify, mostly under pKd 3.1 to 4
Conditions: plain residues with an end cap or a label only (N-terminal biotin on a linker: ado-ado)

Binder	pKd
PRAEAEDSFL [PDGFRB, P09619]	3.76
EALLQMESVA [CAVIN3, Q969G5]	3.56

Biological target: TJP2_1, Q9UDY2
Sequence (Q9UDY2 24-128): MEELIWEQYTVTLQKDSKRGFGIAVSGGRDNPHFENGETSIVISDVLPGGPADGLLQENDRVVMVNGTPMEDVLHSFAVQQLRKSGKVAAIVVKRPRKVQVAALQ
Assay: holdup assay
Parameters: key: below the threshold = too weak to quantify, mostly under pKd 3.1 to 4
Conditions: plain residues with an end cap or a label only (N-terminal biotin on a linker: ado-ado)

Binder	pKd
PRAEAEDSFL [PDGFRB, P09619]	below the threshold
EALLQMESVA [CAVIN3, Q969G5]	below the threshold

Biological target: T5, GRIP1_5, Q9Y3R0
Assay: holdup assay
Parameters: key: below the threshold = too weak to quantify, mostly under pKd 3.1 to 4
Conditions: plain residues with an end cap or a label only (N-terminal biotin on a linker: ado-ado)

Binder	pKd
PRAEAEDSFL [PDGFRB, P09619]	3.53
EALLQMESVA [CAVIN3, Q969G5]	below the threshold

Biological target: T6, MPP7, Q5T2T1
Assay: holdup assay
Parameters: key: below the threshold = too weak to quantify, mostly under pKd 3.1 to 4
Conditions: plain residues with an end cap or a label only (N-terminal biotin on a linker: ado-ado)

Binder	pKd
PRAEAEDSFL [PDGFRB, P09619]	below the threshold
EALLQMESVA [CAVIN3, Q969G5]	below the threshold

Biological target: PDZRN4_1, Q6ZMN7
Sequence (Q6ZMN7 213-318): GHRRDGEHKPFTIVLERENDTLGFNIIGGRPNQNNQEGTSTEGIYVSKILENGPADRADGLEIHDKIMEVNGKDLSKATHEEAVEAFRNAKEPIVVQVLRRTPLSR
Assay: holdup assay
Parameters: key: below the threshold = too weak to quantify, mostly under pKd 3.1 to 4
Conditions: plain residues with an end cap or a label only (N-terminal biotin on a linker: ado-ado)

Binder	pKd
PRAEAEDSFL [PDGFRB, P09619]	3.69
EALLQMESVA [CAVIN3, Q969G5]	below the threshold

Biological target: SCRIB_2, Q14160
Sequence (Q14160 857-960): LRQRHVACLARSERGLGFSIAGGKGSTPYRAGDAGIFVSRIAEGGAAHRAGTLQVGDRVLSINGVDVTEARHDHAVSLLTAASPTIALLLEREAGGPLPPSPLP
Assay: holdup assay
Parameters: key: below the threshold = too weak to quantify, mostly under pKd 3.1 to 4
Conditions: plain residues with an end cap or a label only (N-terminal biotin on a linker: ado-ado)

Binder	pKd
PRAEAEDSFL [PDGFRB, P09619]	below the threshold
EALLQMESVA [CAVIN3, Q969G5]	below the threshold

Biological target: LAP2, Q96RT1
Sequence (Q96RT1 other isoform, or with tags, fused parts or gaps): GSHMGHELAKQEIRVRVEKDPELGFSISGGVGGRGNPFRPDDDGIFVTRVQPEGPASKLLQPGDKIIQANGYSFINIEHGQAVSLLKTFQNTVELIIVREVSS
Assay: holdup assay
Parameters: key: below the threshold = too weak to quantify, mostly under pKd 3.1 to 4
Conditions: plain residues with an end cap or a label only (N-terminal biotin on a linker: ado-ado)

Binder	pKd
PRAEAEDSFL [PDGFRB, P09619]	3.53
EALLQMESVA [CAVIN3, Q969G5]	below the threshold

Biological target: AHNAK1, Q09666
Sequence (Q09666 4-100): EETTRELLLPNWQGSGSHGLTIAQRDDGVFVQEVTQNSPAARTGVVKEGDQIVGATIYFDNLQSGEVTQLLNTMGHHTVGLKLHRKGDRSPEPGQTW
Assay: holdup assay
Parameters: key: below the threshold = too weak to quantify, mostly under pKd 3.1 to 4
Conditions: plain residues with an end cap or a label only (N-terminal biotin on a linker: ado-ado)

Binder	pKd
PRAEAEDSFL [PDGFRB, P09619]	below the threshold
EALLQMESVA [CAVIN3, Q969G5]	below the threshold

Biological target: T7, LIN7C, Q9NUP9
Assay: holdup assay
Parameters: key: below the threshold = too weak to quantify, mostly under pKd 3.1 to 4
Conditions: plain residues with an end cap or a label only (N-terminal biotin on a linker: ado-ado)

Binder	pKd
PRAEAEDSFL [PDGFRB, P09619]	below the threshold
EALLQMESVA [CAVIN3, Q969G5]	below the threshold

Biological target: T8, GRIP1_2, Q9Y3R0
Assay: holdup assay
Parameters: key: below the threshold = too weak to quantify, mostly under pKd 3.1 to 4
Conditions: plain residues with an end cap or a label only (N-terminal biotin on a linker: ado-ado)

Binder	pKd
PRAEAEDSFL [PDGFRB, P09619]	below the threshold
EALLQMESVA [CAVIN3, Q969G5]	below the threshold

Biological target: HTRA2, O43464
Sequence (O43464 355-458): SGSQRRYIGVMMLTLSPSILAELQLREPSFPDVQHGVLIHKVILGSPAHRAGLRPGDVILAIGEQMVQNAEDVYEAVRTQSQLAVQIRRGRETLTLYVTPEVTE
Assay: holdup assay
Parameters: key: below the threshold = too weak to quantify, mostly under pKd 3.1 to 4
Conditions: plain residues with an end cap or a label only (N-terminal biotin on a linker: ado-ado)

Binder	pKd
PRAEAEDSFL [PDGFRB, P09619]	below the threshold
EALLQMESVA [CAVIN3, Q969G5]	below the threshold

Biological target: T9, SYNJ2BP, P57105
Assay: holdup assay
Parameters: key: below the threshold = too weak to quantify, mostly under pKd 3.1 to 4
Conditions: plain residues with an end cap or a label only (N-terminal biotin on a linker: ado-ado)

Binder	pKd
PRAEAEDSFL [PDGFRB, P09619]	3.93
EALLQMESVA [CAVIN3, Q969G5]	3.52

Biological target: GRID2IP_1, A4D2P6
Sequence (A4D2P6 1-87): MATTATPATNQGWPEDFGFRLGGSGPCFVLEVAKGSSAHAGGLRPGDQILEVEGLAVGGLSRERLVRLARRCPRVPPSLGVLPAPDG
Assay: holdup assay
Parameters: key: below the threshold = too weak to quantify, mostly under pKd 3.1 to 4
Conditions: plain residues with an end cap or a label only (N-terminal biotin on a linker: ado-ado)

Binder	pKd
PRAEAEDSFL [PDGFRB, P09619]	below the threshold
EALLQMESVA [CAVIN3, Q969G5]	below the threshold

Biological target: MAGI2_2, Q86UL8
Sequence (Q86UL8 410-522): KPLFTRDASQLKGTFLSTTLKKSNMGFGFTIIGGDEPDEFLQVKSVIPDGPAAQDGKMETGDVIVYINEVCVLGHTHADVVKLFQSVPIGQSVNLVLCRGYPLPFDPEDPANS
Assay: holdup assay
Parameters: key: below the threshold = too weak to quantify, mostly under pKd 3.1 to 4
Conditions: plain residues with an end cap or a label only (N-terminal biotin on a linker: ado-ado)

Binder	pKd
PRAEAEDSFL [PDGFRB, P09619]	3.55
EALLQMESVA [CAVIN3, Q969G5]	below the threshold

Biological target: T10, GRIP1_3, Q9Y3R0
Assay: holdup assay
Parameters: key: below the threshold = too weak to quantify, mostly under pKd 3.1 to 4
Conditions: plain residues with an end cap or a label only (N-terminal biotin on a linker: ado-ado)

Binder	pKd
PRAEAEDSFL [PDGFRB, P09619]	below the threshold
EALLQMESVA [CAVIN3, Q969G5]	below the threshold

Biological target: GRIP2_3, Q9C0E4
Sequence (Q9C0E4 238-339): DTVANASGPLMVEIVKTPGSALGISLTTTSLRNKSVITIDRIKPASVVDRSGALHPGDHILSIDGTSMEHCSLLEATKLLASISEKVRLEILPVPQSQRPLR
Assay: holdup assay
Parameters: key: below the threshold = too weak to quantify, mostly under pKd 3.1 to 4
Conditions: plain residues with an end cap or a label only (N-terminal biotin on a linker: ado-ado)

Binder	pKd
PRAEAEDSFL [PDGFRB, P09619]	below the threshold
EALLQMESVA [CAVIN3, Q969G5]	below the threshold
